The source of these data is publication PMC4195775 (The EMBO Journal, 2014).

The chains are these.
B1: ITGB1c-His (integrin β1 cytoplasmic domain, 752-798) (domain or fragment, UniProt P05556 752-798, looked up)
chain: KLLMIIHDRREFAKFEKEKMNAKWDTGENPIYKSAVTTVVNPKYEGK
modifications: also: His tag, position and length not given here
B2: GST-NT (recombinant GST-fused girdin NT) (domain or fragment, human, UniProt Q3V6T2 1-256, looked up)
chain: MENEIFTPLLEQFMTSPLVTWVKTFGPLAAGNGTNLDEYVALVDGVFLNQVMLQINPKLESQRVNKKVNNDASLRMHNLSILVRQIKFYYQETLQQLIMMSLPNVLIIGKNPFSEQGTEEVKKLLLLLLGCAVQCQKKEEFIERIQGLDFDTKAAVAAHIQEVTHNQENVFDLQWMEVTDMSQEDIEPLLKNMALHLKRLIDERDEHSETIIELSEERDGLHFLPHASSSAQSPCGSPGMKRTESRQHLSVELADA

Ends that are not written are not given here.

The target of assay [1] is B2. Kind of assay: in vitro binding assay.
Assay [2] addresses EGFRc-His (EGFR cytoplasmic domain, 669-1210) (UniProt P00533 669-1210). Kind of assay: pull-down.

Turning to B1, the binding result in assay [1] was “binds”.

B2: the binding result in assay [2] is “binds”.
